From the DeepSol protein solubility set come the findings set out here.

The data set can be described thus: soluble on expression in E. coli; label from the status in PepcDB or PDB records.
For the sequence “MSLSNNKQSSTNDGKISIVTSTNVYADIAKNIVGKYGSAKAIIKNSATDPHDFEPTTQDAKELSSTNIIVANGLGYDSWMNKLASSVDKKPVLVGEELMKLKKGANPHIWYSLSMPTEYVDYLVKRLSKIDSKHKAYFEANGKKYLAKINQVKALAKNSKKTDKMVFVSEPVFDYALAEAGYKIGDKDFEKAVENNTDPSPKTINRMTNDIKNKKIAFFVNNTQSSSSTVKTFVKLAKQNNIPVLNVRETIPNHTTYLNWMKENYQNLANISKEGHHHHHH”, the “soluble on expression in E. coli” value was “not soluble”.

Take “MSLSNSPLPPNATPMERALAAVTERLEAIPLPYPDLWNPDTCPAGHLPWLAWTLSVDDWKADWSDAVKRSRLRSAMAIQRRKGTANSVRMVVASFGGAVTIREWWQQQPRGQPHTFELTLTLNGSDGRAASARFVDEVIAEVERTKPVRSHFGFVQGLQATGNVSLVTGVRIINYRRLSMMAQGEGHHHHHH”: the “soluble on expression in E. coli” value is reported as “not soluble”.

With “MSLSPLEMALLVHRGEFHLRELEPELPLEKFLKNADPKKTRKFLEKCGKEELERQKELIRKHNVKLVSFWEDDYPQHLREIRYPPAVLFVRGDAELLKEKCVGVVGTRRPTSYGVNVTKRFVKLLSEYFVIVSGMAFGIDSVAHKEALSSGGKTVAVLGTGVDVVYPRSNERLFHEIVKNGCVVSEYPMGTRARKHHFPARNRIIAGLSDAIIVTEAPIKSGALITVKFALESGRDVFAVPGDIDRKTSEGTNYLIKSGAYPLTDEEDLETHFGIRRIASPSLDDDKKKIYDLLRSSPKTVDELVEELGWSVSEVLRVISEMELMGMIWFDGGAYRLLGEGHHHHHH”, the “soluble on expression in E. coli” value was “soluble”.

For “MSLSPLSKLDKIAVSGNKQLTENEVRKESGLEIGEFVIGISNGKTEDTLKKNTLIKDATVSKEGINDVQINITEFKTIGYQQQDGKYYDVLESGIMLTDQPRQFPIGNDLLFQNFKNGKTLEKMVAQINKLPKDVVSSISEVIYSPTKTDKNHIKLYMNDGNQVSADISTFAEKMQHYPAIVAQLAKGQKGVIDIEVGSYFQSYYQQNAEKKAAEEAAKEKKETNEGHHHHHH”, the “soluble on expression in E. coli” value is “soluble”.

As to “MSLSQASSTDTPFVIAGRTYGSRLLVGTGKYKDLDETRRAIEASGAEIVTVAVRRTNIGQNPDEPNLLDVIPPDRYTILPNTAGCYDAVEAVRTCRLARELLDGHNLVKLEVLADQKTLFPNVVETLKAAEQLVKDGFDVMVYTSDDPIIARQLAEIGCIAVMPLAGLIGSGLGICNPYNLRIILEEAKVPVLVDAGVGTASDAAIAMELGCEAVLMNTAIAHAKDPVMMAEAMKHAIVAGRLAYLAGRMPRKLYASASSPLDGLIDEGGSHHHHHH”, the “soluble on expression in E. coli” value was “soluble”.

With “MSLSQQVPAASFTLLDGQKLSTQDLKGKVYLVNFWATSCATCVKEMPNMIQTYNKFKGQGLEFVAVAMSYDPPMYVMNYSQTRQLPFKVAMDADGAAARAFGDVQLTPTTFLVDRNGRILRRYVGEPEWASFETLLRDTLAKQAEGLITITTDPNSSSVDKLAAALEHHHHHH”, the “soluble on expression in E. coli” value is recorded as “soluble”.

Regarding “MSLSRFQFVADHLHAFEVKWLCAGVEVARSSFYAWLAGAEGRAARKAADEALAARIRMVHDEDNTYGAPRITAELNDSVPDGERVNHKRVARVMRDAGIAGYRRRRRVKTTTPDPAKQKVPDLLKRDFTAPAPNEKYVGDITYLPLATGSNLYMATVIDCFSGRVAGWAIAEHMRTELVEDALKAADALRGSLAGAVFHSDHGSQYTSTDFASLCEKLGVTQSMGGVGSSADNALAESFNASLKREVLQDRSHWPDSATCRRQVFRWLVRYNLRRRHSRCRYSSPVSYERSHAPATLPEAAEGHHHHHH”, the “soluble on expression in E. coli” value is listed as “not soluble”.

“MSLSRYEKIISARWIITVETDGEVLENHAIAIRDGKIAAIIPAADAAGLEADERLELPDHVLMPGLINLHGHSAMSLLRGLADDKALMDWLTNYIWPTEGKHVHDDFVFDGSLLAMGEMIRGGTTTINDMYFYNAAVARAGLASGMRTFVGCSILEFPTNYASNADDYIAKGMAERSQFLGEDLLTFTLAPHAPYTVSDDTFRKVVTLAEQEDMLIHCHIHETADEVNNSVKEHGQRPLARLQRLGLLSPRLVAAHMVHLNDAEVELAARHGLSTAHNPASNMKLASGISPVSKLMDAGVAVGIGTDGAASNNKLDMLAETRLAALLAKVGTLDPTSVPAAAAIRMATLNGARALGIADKVGSVKVGKQADLIALDLAQLETAPAFDPISHVVYAAGREQVSHVWVKGRALMRERKLTTLDESDLKARAGDWRNRILAKEGHHHHHH”: the “soluble on expression in E. coli” value was “soluble”.

Turning to “MSLSSVRDKYNFNSEWLLYVGDTPEAKEVRFQDTDWKKVTLPRPFNEDEAFRLSIEQLTDTVMWYRKHFRLPADSKNKKVFVEFEGVRQGADFYINGEYIGLHENGAMAVGFDLTPYIKYGQENVMAVRIDNNWNYKERATGTKYQWSDRNFNANYGGIPKNVWLHVTDKLYQTLPLYSNLKTTGVYIYAEDIRVKSRKAVVHAESEIKNEYNRDKKVAYKVEVFDRDGKSIKSFEGTQTVVKPGETATLEASAEIDGLHFWSWGYGYLYTVKTSLWVDGRKVDEVATRTGFRKTRFGKGMIWLNDRVIQMKGFAQRTSNEWPGVGMSVPAWLSDYSNGLMVEDNANLVRWMHITPWKQDIESCDRVGLIQAMQAGDAEKDREGRQWEQRTELMRDAIIYNRNNPSILFYECGNESISREHMIEMKAIRDKYDPHGGRAIGSREMLDIREAEYGGEMLYINKSKHHPMWAMEYCRDEGLRKYWDEYSYPYHKNGEGNNSFRSAMTNKVQKKVDARAYNHNQDSFTIENVIRWFDYWRERPGTGDRVSSGGVKIIFSDTNTHYRGVENYRRSGVTDAMRIPKDPFYAHQVMWDGWVDIENPRIHIVGHWNYKEDVVKPVYVVSSAEKVELFLNGKSLGNGQRDYHFLYTFKDVAFVPGKLEAVGYDKNGKECCRAELQTAGKPEQIKLSVIQSPKGWKADGADMVLLQVEVMDKDGRRCPLANDLIHFDVEGPAEWRGGIAQGKDNYILSKDLPVECGINRALIRSLTTPGAVRITAKADGLQSAEISLSSAPVEVKNGLSNYIPGDELEGRLTRGETPLTPSYKDTKVDVNILSAVAGANQDETIKSFDDNELSEWKNDGRLNSAWITYSLERAARVDEICMKLTGWRLRSYPLEIYAGDELIWSGETEKSLGYIHLNVKPVLTNEITIRLKGASKEGDGFGQIVEVAAPAAGELDLFKAKNGDKTNHELRIVEIEFKENLWQEGHHHHHH”, the “soluble on expression in E. coli” value is “soluble”.

With “MSLSTIRIGGAAVNQTPIDWENNVKNILDAIEEAKNANVEILCLPELCITGYGCEDLFLTDWVAETAIEYCFEIAASCTDITVSLGLPMRIAGITYNCVCLVENGIVKGFSAKQFLANEGVHYETRWFTAWPRNHTTTFLYNDVKYPFGDVLYNVKDARIGFEICEDAWRTDRVGIRHYEKGATLVLNPSASHFAFGKSAIRYDLVIGGSERFDCTYVYANLLGNEAGRMIYDGEVLIAHKGKLIQRNDRLSFKNVNLIYADIATDSAETPETVLTQDDLEKEFEFWEATSLGLFDYMRKSRSKGFVLSLSGGADSSACAIMVAEMIRKGLKELGLTAFLQKSNMETLFDLPALQHLPFEEQAKKITAVFLTTAYQSTRNSGDETYTSAKTLAESIGATFYNWSVDEEIEQYKATIENVIERPLTWEKDDITLQNIQARGRAPIIWMLTNVKQALLITTSNRSEGDVGYATMDGDTAGGIAPIAGVDKDFIRSWLRWAEKNRNQHGLHIVNKLAPTAELRPSEYTQTDERDLMPYDVLARIERKAIKERLSPVQVYTALLTEGPYTKNEFKYWVKKFFRLWSINQWKRERLAPSFHMDDFNIDPRSWYRFPILSSGFAKELNDLDQEGHHHHHH”, the “soluble on expression in E. coli” value was “soluble”.

For “MSLSTLRIAMTAADIPLTLGQPDQGYEGNRFTGIPLYDALVEWDLSQGEKPSGLVPGLATEWHIDPQNTSRWIFTLRPGVKFHDGTEVNADAIVWNVDKVLNKAAPQYAPGQIGNTLSRMPTLTGAEKIDDHTVALTTSEPDALLPYNITNLFIVSPTAWQKQYDAVPASVGDSAARSKQAWTAFAAHAVGSGPFKLEKLVPRQQLILDKNPDYWNKDRIPRVDKVVLIPLPEANARTAALLSKQVDWIEAPAPDAIDQIKSQGFHLYANTQPHLWPWQFSFEKGSPWQDIRVRKAANLCLNRAELKSYLGGYMTEATGVYEADSPWHGKPTFQIKYDPDVARQLMTEAGYSASKPLHVTVATSASGSGQMQPLPMNEYIQQSLKSCFFNVDIKVVEWNTLFTNWRLGARDPSAKGIDAINVSAAVNDPYFGLIRFSTAKAFPPVATNWGYFSTPETEKLAAAVKHAFTPAEMNKAAGELHAALVDQVPFLFVAHDVGPRAISPAVTGVVQPQSWFIDLSLVSKKEGHHHHHH”, the “soluble on expression in E. coli” value is given as “soluble”.

Turning to “MSLSTQTVTIKSLGAQGDGIAHCPDGPVYVPFALPGETVAIAKVKDQGTVMSITEASADRRDPVCRHFGPEGINGTCGGCSLQHLADQPYHAFKRELVVSALRSKGLTPPVDDLVICRPGERRRAVFAARKTEKGLLLGFSQANSHHIVAIEECPVTSPGIVSRFDAIRAIGLSMVANAEPFRITVLETLSGLDISVEGIKSVNDKQRRTLTETVLAMRGIARVSLSGEILIEPQKPIIEFGGIPVSPPAGGFTQATKQAEDAMAELMLAHVGKSKRIADLFCGSGTFALRLARIGRVHAVEAEDKALKALDFAARNTQGLKPVSVEKRDLFRRPLMTSELKNYDAVVFDPPRAGAEVQCKELARSTVKKIVAVSCNPLTLARDLAILTEGGYRVTRVTPVDQFLWSPHVEAVAVLEKEGHHHHHH”, the “soluble on expression in E. coli” value is on record as “soluble”.

For “MSLSTSPKPSPIPSPVLGQKPNASQSLLAWCREVTKNYRGVKITNFTTSWRNGLSFCAILHHFRPDLIDYKSLNPQDIKENNKKAYDGFASIGISRLLEPSDMVLLAIPDKLTVMTYLYQIRAHFSGQELNVVQIEENSSKSTYKVGNYETDTNSSVDQEKFYAELSDLKREGHHHHHH”, the “soluble on expression in E. coli” value is given as “soluble”.

Take “MSLSYTKIFGLGGVHEIGKSTLVIHHEKSIAIIDAGIKFADSSTTGLHGIIPNYSYLKKHEDQIEGIFVTHGHEDHIGGIIYLLQQVKINKIFAPKIAIEYLKYKLEDRGLRIKVEFIEIKKDDTHHLGSLVVDFWTAQHSIPDAFGIRVKTPDGSVLCTGDFRIDYRPIGNYTDFSKLEQIGKEGLTLLLSDSTNAMRPNHSPSENDILKDIEKIMLAAKRKIIITTFASNLIRIKVIIELAEKLNKKIAVFGRSMVNGIAIGKELGYIKTPDSSFIDKKSIDQYEDKDIVILTTGSQGEQLAALSRMSYEKHPQVSIRKNDTIIFSSSPIPGNKMKIELLINRLYKLGAIIKENGVDGYLHTSGHAYQEEHEKIFSIAKPKYFFPYHGEYRMSVVHGQTAIRSGVKPENVIIPGIGEVVKMEEGHHHHHH”: the “soluble on expression in E. coli” value is listed as “not soluble”.

In the case of “MSLTANSHAVMTVGDQTVSPQEFRLAYQRQVSDLSRQFGTRLTTEQAKAFGIDRQVFSQLAAGAALDELASKMNLGLSENRLANLIAEDPAFKSVNGQFDRNLFSERLRNSGFREDDYIKERSKVAVRSQIVEAVSDGFAAPQVLVDALKQYRNEQRAVDYVILSNAVIPPVKAPGDDVLTPWFETNKSKYRAPEFRKFTYVKLEPSDIAEPASVTDAQIADYYNSHKDSFRTAGRRTVEQLTFPDKEMAAAAAEQIRLGNTTYDQVVKDQGKTASDVTLGEFTKDTIPDQSIADAAFAIQKDGGVSPVVDGSFGPILLRVTGIKPETEGHHHHHH”, the “soluble on expression in E. coli” value is “soluble”.

With “MSLTDDRYTVISADCHAGADLLDYRPYLAKRHHDAFDAWAATYVNPYEDLLADTADRNWNSERRLAELAADGIVAEVVFPNTIPPFFPSASLMAPAPTAAEFEQRWAGLRAHNRWLADFCAAAPGRRAGVFQILLNDVEEAVKEISWAAGAGLRGGLLLPGTPPGSGLPELYSKAYDPIWAVCEELDVPVNHHAGSASPPLGDEPAARAVFMVETTWFSHRALWHLVFGGAFRRHPGLRLVLTEQGSGWIPGVLDMLDYYHGRLVAAGPKSATAEAKFGAGLDRAMGKGPSEVWRDNCFVGASFMRPHEVPLRDRIGLDKIMWGSDYPHDEGTYPYSREGLRIAYAGLPRTEIAAMAGGNAARVYGFDLSEGHHHHHH”, the “soluble on expression in E. coli” value is reported as “soluble”.
